Values quoted from earlier work as cited in PMC7192543.

What was measured:
OmpR (Escherichia coli) = OmpR (Escherichia coli) (UniProt P0AA16); assay: fluorescence anisotropy
[1] = target: OmpR~P (Escherichia coli) (UniProt P0AA16)

Substance | Kd (OmpR (Escherichia coli)) [nM] | Kd [1] [nM]
EnvZ cytoplasmic domain (EnvZc) (from UniProt P0AEJ4) | 425 | 
EnvZ (from UniProt P0AEJ4) |  | > 5000
